In patent publication US20090137003A1 (SYMPHOGEN A S, published 2009):

Experiments:
Assay in all cases: cell-based or functional assay
[1] = target: T1, RSV protein F of strain B Wash/18537 (RSV B Wash/18537 (ATCC number VR-1580), UniProt P13843 26-574)
[2] = target: T2, RSV protein F of strain Long (RSV Long (ATCC number VR-26), UniProt P12568 26-574)
[3] = target: T3, RSV protein F of strain A2 (RSV A2 (ATCC number VR-1540), UniProt P03420 26-574)
[4] = target: T1, RSV protein F of strain B Wash/18537; remark: listed apart in the source
[5] = target: T2, RSV protein F of strain Long; remark: listed apart in the source
[6] = target: T3, RSV protein F of strain A2; remark: listed apart in the source

T1 sequence (P13843 26-574): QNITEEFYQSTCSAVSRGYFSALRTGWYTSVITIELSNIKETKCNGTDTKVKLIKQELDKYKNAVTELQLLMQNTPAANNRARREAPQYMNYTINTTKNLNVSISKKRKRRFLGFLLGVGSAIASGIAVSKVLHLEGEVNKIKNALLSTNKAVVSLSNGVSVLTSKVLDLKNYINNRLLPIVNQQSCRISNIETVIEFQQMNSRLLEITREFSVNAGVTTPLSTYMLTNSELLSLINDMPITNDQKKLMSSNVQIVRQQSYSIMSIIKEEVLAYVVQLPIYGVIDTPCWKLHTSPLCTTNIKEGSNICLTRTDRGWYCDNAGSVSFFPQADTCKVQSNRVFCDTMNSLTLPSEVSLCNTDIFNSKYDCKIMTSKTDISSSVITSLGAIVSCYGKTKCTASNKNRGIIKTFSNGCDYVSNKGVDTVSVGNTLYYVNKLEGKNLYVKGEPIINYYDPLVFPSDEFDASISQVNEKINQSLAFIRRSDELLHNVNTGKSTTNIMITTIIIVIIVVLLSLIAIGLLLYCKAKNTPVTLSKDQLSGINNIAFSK
T2 sequence (P12568 26-574): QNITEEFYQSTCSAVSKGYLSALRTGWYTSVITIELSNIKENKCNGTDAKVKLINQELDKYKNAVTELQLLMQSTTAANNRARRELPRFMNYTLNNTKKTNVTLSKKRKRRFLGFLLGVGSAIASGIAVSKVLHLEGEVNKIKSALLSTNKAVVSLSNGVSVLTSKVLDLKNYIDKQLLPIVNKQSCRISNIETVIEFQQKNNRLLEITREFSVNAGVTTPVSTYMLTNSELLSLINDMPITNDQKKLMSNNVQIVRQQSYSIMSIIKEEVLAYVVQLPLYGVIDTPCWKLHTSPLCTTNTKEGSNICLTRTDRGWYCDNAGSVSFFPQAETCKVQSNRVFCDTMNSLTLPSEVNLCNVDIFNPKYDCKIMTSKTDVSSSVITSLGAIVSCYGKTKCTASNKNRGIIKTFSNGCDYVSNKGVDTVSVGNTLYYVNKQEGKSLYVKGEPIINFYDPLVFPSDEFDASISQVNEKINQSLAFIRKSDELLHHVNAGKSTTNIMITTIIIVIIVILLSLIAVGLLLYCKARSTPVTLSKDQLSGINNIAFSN
T3 sequence (P03420 26-574): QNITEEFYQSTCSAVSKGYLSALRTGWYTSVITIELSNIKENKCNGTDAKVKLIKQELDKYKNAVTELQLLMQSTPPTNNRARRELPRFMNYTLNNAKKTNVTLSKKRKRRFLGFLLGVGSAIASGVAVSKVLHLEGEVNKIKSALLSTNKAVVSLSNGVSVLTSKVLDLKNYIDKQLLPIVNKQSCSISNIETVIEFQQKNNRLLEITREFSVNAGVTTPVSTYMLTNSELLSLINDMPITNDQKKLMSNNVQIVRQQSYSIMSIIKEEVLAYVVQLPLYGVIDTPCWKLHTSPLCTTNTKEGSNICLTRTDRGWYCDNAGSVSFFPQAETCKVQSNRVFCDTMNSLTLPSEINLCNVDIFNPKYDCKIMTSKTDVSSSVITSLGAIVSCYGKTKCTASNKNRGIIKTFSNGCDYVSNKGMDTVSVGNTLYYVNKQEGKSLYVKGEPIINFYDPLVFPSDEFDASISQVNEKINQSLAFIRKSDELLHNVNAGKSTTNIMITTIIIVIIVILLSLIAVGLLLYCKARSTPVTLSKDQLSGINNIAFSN

B1: Palivizumab (Synagis) (antibody, V domains shown)
VH: QVTLRESGPALVKPTQTLTLTCTFSGFSLSTSGMSVGWIRQPPGKALEWLADIWWDDKKDYNPSLKSRLTISKDTSKNQVVLKVTNMDPADTATYYCARSMITNWYFDVWGAGTTVTVSS
VL: DIQMTQSPSTLSASVGDRVTITCKCQLSVGYMHWYQQKPGKAPKLLIYDTSKLASGVPSRFSGSGSGTEFTLTISSLQPDDFATYYCFQGSGYPFTFGGGTKLEIK
[1]
  EC50 value (µg/ml), PRNT (plaque reduction neutralization) against RSV strain 18537: 0.2 µg/mL
[2]
  EC50 value (µg/ml), PRNT (plaque reduction neutralization) against RSV strain Long: 0.14 µg/mL
[3]
  EC50 value (µg/ml), PRNT (plaque reduction neutralization) against RSV strain A2: 0.15 µg/mL
[4]
  PRNT EC50 with complement, RSV 18537: 0.2 µg/mL
[5]
  PRNT EC50 with complement, RSV Long: 0.14 µg/mL
[6]
  PRNT EC50 with complement, RSV A2: 0.15 µg/mL
